# Test results from US20100260668A1 (published 2010).
# B1: DVD467 (bispecific antibody, IgG1)
# VH: EVQLVESGGGLVQPGGSLRLSCAASGFTFTDNWISWVRQAPGKGLEWVGYISPNSGFTYYADSVKGRFTISADTSKNTAYLQMNSLRAEDTAVYYCARDNFGGYFDYWGQGTLVTVSSASTKGPEVQLVESGGGLVQPGGSLRLSCAASGFTINASWIHWVRQAPGKGLEWVGAIYPYSGYTNYADSVKGRFTISADTSKNTAYLQMNSLRAEDTAVYYCARWGHSTSPWAMDYWGQGTLVTVSS
# VL: DIQMTQSPSSLSASVGDRVTITCRASQDVSTAVAWYQQKPGKAPKLLIYSASFLYSGVPSRFSGSGSGTDFTLTISSLQPEDFATTYYCQQSYTGTVTFGQGTKVEIKRTVAAPDIQMTQSPSSLSASVGDRVTITCRASQVIRRSLAWYQQKPGKAPKLLIYAASNLASGVPSRFSGSGSGTDFTLTISSLQPEDFATYYCQQSNTSPLTFGQGTKVEIKR
# notes: DVD-Ig, outer AB015 / inner AB071; HC linker short, LC linker short; also called DVD467H; DVD467L
# B2: DVD468 (bispecific antibody, IgG1)
# VH: EVQLVESGGGLVQPGGSLRLSCAASGFTINASWIHWVRQAPGKGLEWVGAIYPYSGYTNYADSVKGRFTISADTSKNTAYLQMNSLRAEDTAVYYCARWGHSTSPWAMDYWGQGTLVTVSSASTKGPEVQLVESGGGLVQPGGSLRLSCAASGFTFTDNWISWVRQAPGKGLEWVGYISPNSGFTYYADSVKGRFTISADTSKNTAYLQMNSLRAEDTAVYYCARDNFGGYFDYWGQGTLVTVSS
# VL: DIQMTQSPSSLSASVGDRVTITCRASQVIRRSLAWYQQKPGKAPKLLIYAASNLASGVPSRFSGSGSGTDFTLTISSLQPEDFATYYCQQSNTSPLTFGQGTKVEIKRTVAAPDIQMTQSPSSLSASVGDRVTITCRASQDVSTAVAWYQQKPGKAPKLLIYSASFLYSGVPSRFSGSGSGTDFTLTISSLQPEDFATTYYCQQSYTGTVTFGQGTKVEIKR
# notes: DVD-Ig, outer AB071 / inner AB015; HC linker short, LC linker short; also called DVD468H; DVD468L
# B3: DVD473 (bispecific antibody, IgG1)
# VH: EVQLVESGGGLVQPGGSLRLSCAASGFTFTDNWISWVRQAPGKGLEWVGYISPNSGFTYYADSVKGRFTISADTSKNTAYLQMNSLRAEDTAVYYCARDNFGGYFDYWGQGTLVTVSSASTKGPSVFPLAPEVQLVESGGGLVQPGGSLRLSCAASGFTINASWIHWVRQAPGKGLEWVGAIYPYSGYTNYADSVKGRFTISADTSKNTAYLQMNSLRAEDTAVYYCARWGHSTSPWAMDYWGQGTLVTVSS
# VL: DIQMTQSPSSLSASVGDRVTITCRASQDVSTAVAWYQQKPGKAPKLLIYSASFLYSGVPSRFSGSGSGTDFTLTISSLQPEDFATTYYCQQSYTGTVTFGQGTKVEIKRTVAAPSVFIFPPDIQMTQSPSSLSASVGDRVTITCRASQVIRRSLAWYQQKPGKAPKLLIYAASNLASGVPSRFSGSGSGTDFTLTISSLQPEDFATYYCQQSNTSPLTFGQGTKVEIKR
# notes: DVD-Ig, outer AB015 / inner AB071; HC linker long, LC linker long; also called DVD473H; DVD473L
# B4: DVD474 (bispecific antibody, IgG1)
# VH: EVQLVESGGGLVQPGGSLRLSCAASGFTINASWIHWVRQAPGKGLEWVGAIYPYSGYTNYADSVKGRFTISADTSKNTAYLQMNSLRAEDTAVYYCARWGHSTSPWAMDYWGQGTLVTVSSASTKGPSVFPLAPEVQLVESGGGLVQPGGSLRLSCAASGFTFTDNWISWVRQAPGKGLEWVGYISPNSGFTYYADSVKGRFTISADTSKNTAYLQMNSLRAEDTAVYYCARDNFGGYFDYWGQGTLVTVSS
# VL: DIQMTQSPSSLSASVGDRVTITCRASQVIRRSLAWYQQKPGKAPKLLIYAASNLASGVPSRFSGSGSGTDFTLTISSLQPEDFATYYCQQSNTSPLTFGQGTKVEIKRTVAAPSVFIFPPDIQMTQSPSSLSASVGDRVTITCRASQDVSTAVAWYQQKPGKAPKLLIYSASFLYSGVPSRFSGSGSGTDFTLTISSLQPEDFATTYYCQQSYTGTVTFGQGTKVEIKR
# notes: DVD-Ig, outer AB071 / inner AB015; HC linker long, LC linker long; also called DVD474H; DVD474L
# B5: DVD479 (bispecific antibody, IgG1)
# VH: B3 VH
# VL: B1 VL
# notes: DVD-Ig, outer AB015 / inner AB071; HC linker long, LC linker short; also called DVD479H; DVD479L
# B6: DVD480 (bispecific antibody, IgG1)
# VH: B4 VH
# VL: B2 VL
# notes: DVD-Ig, outer AB071 / inner AB015; HC linker long, LC linker short; also called DVD480H; DVD480L
# B7: DVD485 (bispecific antibody, IgG1)
# VH: B1 VH
# VL: B3 VL
# notes: DVD-Ig, outer AB015 / inner AB071; HC linker short, LC linker long; also called DVD485H; DVD485L
# B8: DVD509 (bispecific antibody, human IgG1, kappa)
# heavy: not shown
# light: DIQMTQSSSYLSVSLGGRVTITCKASDHINNWLAWYQQKPGNAPRLLISGATSLETGVPSRFSGSGSGKDYTLSITSLQTEDVATYYCQQYWSIPLTFGAGTKLELKRTVAAPSVFIFPPDIQMTQSPSSLSASVGDRVTITCRASQVIRRSLAWYQQKPGKAPKLLIYAASNLASGVPSRFSGSGSGTDFTLTISSLQPEDFATYYCQQSNTSPLTFGQGTKVEIKRTVAAPSVFIFPPSDEQLKSGTASVVCLLNNFYPREAKVQWKVDNALQSGNSQESVTEQDSKDSTYSLSSTLTLSKADYEKHKVYACEVTHQGLSSPVTKSFNRGEC
# notes: DVD-Ig; N-term; VD DLL4 (AB072), C-term; VD VEGF (AB071); HC linker short, LC linker long; also called DVD-Ig DVD509; DVD509H
# B9: DVD468 (bispecific antibody, human IgG1, kappa)
# heavy: not shown
# light: DIQMTQSPSSLSASVGDRVTITCRASQVIRRSLAWYQQKPGKAPKLLIYAASNLASGVPSRFSGSGSGTDFTLTISSLQPEDFATYYCQQSNTSPLTFGQGTKVEIKRTVAAPDIQMTQSPSSLSASVGDRVTITCRASQDVSTAVAWYQQKPGKAPKLLIYSASFLYSGVPSRFSGSGSGTDFTLTISSLQPEDFATTYYCQQSYTGTVTFGQGTKVEIKRTVAAPSVFIFPPSDEQLKSGTASVVCLLNNFYPREAKVQWKVDNALQSGNSQESVTEQDSKDSTYSLSSTLTLSKADYEKHKVYACEVTHQGLSSPVTKSFNRGEC
# notes: DVD-Ig; N-term; VD VEGF (AB071), C-term; VD DLL4 (AB015); HC linker short, LC linker short; also called DVD-Ig DVD468; DVD468H
# Target: VEGF (VEGF 1-165 aa, R&D Systems 293-VE-010) (UniProt P15692 27-191)
# Assay: Direct bind ELISA, VEGF coated on plate;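 also: ELISA screening of antibodies for binding to the plate-coated target antigen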
# Experimental: Enzyme Linked Immunosorbent Assays to screen for antibodies that bind a desired target antigen were performed as follows. […] Plates were washed four times with PBS containing 0.02% Tween 20. Plates were blocked by the addition of 300 μL/well blocking solution (non-fat dry milk powder, various retail suppliers, diluted to 2% in PBS) for ½ hour at room temperature. Plates were washed four times after blocking with PBS containing 0.02% Tween 20.
# Plates were washed 4 times with PBS containing 0.02% Tween 20.
# Chain of VEGF (VEGF 1-165 aa, R&D Systems 293-VE-010) (P15692 other isoform, or with tags, fused parts or gaps limits assumed): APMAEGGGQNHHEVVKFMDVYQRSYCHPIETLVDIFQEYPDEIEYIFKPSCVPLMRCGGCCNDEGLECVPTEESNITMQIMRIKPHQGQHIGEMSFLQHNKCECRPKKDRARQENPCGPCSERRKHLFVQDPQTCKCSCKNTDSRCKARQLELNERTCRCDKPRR
row,Binder,EC50
1,B1,1810 nM
2,B2,25.6 nM
3,B3,388 nM
4,B4,17.9 nM
5,B5,456 nM
6,B6,23 nM
7,B7,121 nM

# Target: T1, DLL4 (DLL ECD His tag, R&D 1506-D4-050) (UniProt Q9NR61 27-529)
# T1 construct: extracellular domain; bought
# Assay: BIACORE (SPR), DVD-Ig against DLL4
Binder,Kd,koff,kon
B8,0.153 nM,3.52e-05 s⁻¹,230000 M⁻¹ s⁻¹
B9,3.76 nM,0.000219 s⁻¹,58200 M⁻¹ s⁻¹
